T1: recombinant human IL4 (human, UniProt P05112 25-153)
T1 construct: bought; also called Antigen1
T1 sequence (looked up): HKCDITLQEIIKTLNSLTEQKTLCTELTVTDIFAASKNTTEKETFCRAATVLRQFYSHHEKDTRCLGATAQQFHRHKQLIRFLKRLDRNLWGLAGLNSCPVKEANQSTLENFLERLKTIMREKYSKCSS

B1: CODV-Ig Batch ID 210 (IL4 × IL13 on HC; L1=7, L2=5, L3=2, L4=0) (bispecific antibody)
heavy: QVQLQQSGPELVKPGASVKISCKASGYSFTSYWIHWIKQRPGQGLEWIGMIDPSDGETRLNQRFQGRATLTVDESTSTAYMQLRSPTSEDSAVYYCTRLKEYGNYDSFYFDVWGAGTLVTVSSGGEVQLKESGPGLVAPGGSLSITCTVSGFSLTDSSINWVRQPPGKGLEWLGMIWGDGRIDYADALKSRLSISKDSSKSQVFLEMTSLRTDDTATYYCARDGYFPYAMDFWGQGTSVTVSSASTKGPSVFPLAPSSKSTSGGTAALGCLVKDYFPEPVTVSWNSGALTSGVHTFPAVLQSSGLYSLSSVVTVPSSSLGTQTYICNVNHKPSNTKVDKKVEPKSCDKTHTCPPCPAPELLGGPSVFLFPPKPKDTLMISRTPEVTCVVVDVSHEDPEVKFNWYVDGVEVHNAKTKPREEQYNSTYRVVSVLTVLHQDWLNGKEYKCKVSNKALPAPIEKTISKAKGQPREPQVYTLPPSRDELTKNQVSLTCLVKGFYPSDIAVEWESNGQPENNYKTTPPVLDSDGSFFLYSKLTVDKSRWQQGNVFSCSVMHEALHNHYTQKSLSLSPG
light: DIVLTQSPASLAVSLGQRATISCRASESVDSYGQSYMHWYQQKAGQPPKLLIYLASNLESGVPARFSGSGSRTDFTLTIDPVQAEDAATYYCQQNAEDSRTFGGGTKLEIKGGGGGGGDIQMTQSPASLSVSVGDTITLTCHASQNIDVWLSWFQQKPGNIPKLLIYKASNLHTGVPSRFSGSGSGTGFTLTISSLQPEDIATYYCQQAHSYPFTFGGGTKLEIKGGGGGRTVAAPSVFIFPPSDEQLKSGTASVVCLLNNFYPREAKVQWKVDNALQSGNSQESVTEQDSKDSTYSLSSTLTLSKADYEKHKVYACEVTHQGLSSPVTKSFNRGEC
notes: IgG1 CODV-Ig, heavy chain as template; L4 = 0 (no linker)
B2: CODV-Ig Batch ID 204 (IL4 × IL13 on HC; L1=7, L2=5, L3=1, L4=2) (bispecific antibody, IgG1)
heavy: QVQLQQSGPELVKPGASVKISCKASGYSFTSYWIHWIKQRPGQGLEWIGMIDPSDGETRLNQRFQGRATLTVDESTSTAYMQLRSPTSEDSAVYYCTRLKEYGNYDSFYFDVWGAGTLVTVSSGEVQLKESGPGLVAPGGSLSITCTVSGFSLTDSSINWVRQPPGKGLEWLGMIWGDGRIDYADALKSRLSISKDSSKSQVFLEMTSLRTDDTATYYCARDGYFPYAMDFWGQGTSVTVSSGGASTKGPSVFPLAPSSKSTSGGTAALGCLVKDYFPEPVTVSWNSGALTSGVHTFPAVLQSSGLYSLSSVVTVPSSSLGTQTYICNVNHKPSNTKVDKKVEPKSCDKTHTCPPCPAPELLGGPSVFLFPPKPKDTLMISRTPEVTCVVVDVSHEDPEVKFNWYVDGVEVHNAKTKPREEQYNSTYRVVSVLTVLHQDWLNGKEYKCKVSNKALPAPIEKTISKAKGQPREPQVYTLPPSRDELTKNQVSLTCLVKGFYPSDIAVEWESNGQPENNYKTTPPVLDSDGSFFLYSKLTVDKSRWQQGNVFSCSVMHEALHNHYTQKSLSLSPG
light: B1 light
notes: IgG1 CODV-Ig, heavy chain as template
B3: CODV-Ig Batch ID 216 (IL4 × IL13 on HC; L1=7, L2=5, L3=2, L4=2) (bispecific antibody)
chain 1: not shown
chain 2: B1 light
B4: CODV-Ig Batch ID 234 (IL4 × IL13 on HC; L1=7, L2=5, L3=5, L4=0) (bispecific antibody)
heavy: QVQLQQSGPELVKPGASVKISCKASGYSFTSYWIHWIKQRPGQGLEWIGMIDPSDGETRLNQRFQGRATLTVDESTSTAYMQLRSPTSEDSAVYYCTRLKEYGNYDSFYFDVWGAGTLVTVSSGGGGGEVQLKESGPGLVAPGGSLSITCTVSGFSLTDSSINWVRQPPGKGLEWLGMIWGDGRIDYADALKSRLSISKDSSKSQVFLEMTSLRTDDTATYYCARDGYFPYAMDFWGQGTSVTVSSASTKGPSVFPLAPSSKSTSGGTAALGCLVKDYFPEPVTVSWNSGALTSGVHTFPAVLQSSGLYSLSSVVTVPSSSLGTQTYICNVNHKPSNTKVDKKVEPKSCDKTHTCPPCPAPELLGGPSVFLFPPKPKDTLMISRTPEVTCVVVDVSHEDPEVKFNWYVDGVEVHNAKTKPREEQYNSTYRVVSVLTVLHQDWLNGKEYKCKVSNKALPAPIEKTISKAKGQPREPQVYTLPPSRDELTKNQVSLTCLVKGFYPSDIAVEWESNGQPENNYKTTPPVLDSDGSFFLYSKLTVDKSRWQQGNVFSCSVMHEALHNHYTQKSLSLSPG
light: B1 light
notes: as for B1
B5: CODV-Ig Batch ID 207 (IL4 × IL13 on HC; L1=5, L2=3, L3=2, L4=0) (bispecific antibody)
chain 1: not shown
chain 2: DIVLTQSPASLAVSLGQRATISCRASESVDSYGQSYMHWYQQKAGQPPKLLIYLASNLESGVPARFSGSGSRTDFTLTIDPVQAEDAATYYCQQNAEDSRTFGGGTKLEIKGGGGGDIQMTQSPASLSVSVGDTITLTCHASQNIDVWLSWFQQKPGNIPKLLIYKASNLHTGVPSRFSGSGSGTGFTLTISSLQPEDIATYYCQQAHSYPFTFGGGTKLEIKGGGRTVAAPSVFIFPPSDEQLKSGTASVVCLLNNFYPREAKVQWKVDNALQSGNSQESVTEQDSKDSTYSLSSTLTLSKADYEKHKVYACEVTHQGLSSPVTKSFNRGEC
B6: CODV-Ig Batch ID 213 (IL4 × IL13 on HC; L1=5, L2=3, L3=2, L4=2) (bispecific antibody)
chain 1: not shown
chain 2: B5 chain 2
B7: CODV-Ig Batch ID 209 (IL4 × IL13 on HC; L1=7, L2=3, L3=2, L4=0) (bispecific antibody)
chain 1: not shown
chain 2: DIVLTQSPASLAVSLGQRATISCRASESVDSYGQSYMHWYQQKAGQPPKLLIYLASNLESGVPARFSGSGSRTDFTLTIDPVQAEDAATYYCQQNAEDSRTFGGGTKLEIKGGGGGGGDIQMTQSPASLSVSVGDTITLTCHASQNIDVWLSWFQQKPGNIPKLLIYKASNLHTGVPSRFSGSGSGTGFTLTISSLQPEDIATYYCQQAHSYPFTFGGGTKLEIKGGGRTVAAPSVFIFPPSDEQLKSGTASVVCLLNNFYPREAKVQWKVDNALQSGNSQESVTEQDSKDSTYSLSSTLTLSKADYEKHKVYACEVTHQGLSSPVTKSFNRGEC
B8: CODV-Ig Batch ID 215 (IL4 × IL13 on HC; L1=7, L2=3, L3=2, L4=2) (bispecific antibody)
chain 1: not shown
chain 2: B7 chain 2
B9: CODV-Ig Batch ID 219 (IL4 × IL13 on HC; L1=3, L2=6, L3=3, L4=0) (bispecific antibody)
chain 1: not shown
chain 2: DIVLTQSPASLAVSLGQRATISCRASESVDSYGQSYMHWYQQKAGQPPKLLIYLASNLESGVPARFSGSGSRTDFTLTIDPVQAEDAATYYCQQNAEDSRTFGGGTKLEIKGGGDIQMTQSPASLSVSVGDTITLTCHASQNIDVWLSWFQQKPGNIPKLLIYKASNLHTGVPSRFSGSGSGTGFTLTISSLQPEDIATYYCQQAHSYPFTFGGGTKLEIKGGGGGGRTVAAPSVFIFPPSDEQLKSGTASVVCLLNNFYPREAKVQWKVDNALQSGNSQESVTEQDSKDSTYSLSSTLTLSKADYEKHKVYACEVTHQGLSSPVTKSFNRGEC
B10: CODV-Ig Batch ID 208 (IL4 × IL13 on HC; L1=5, L2=5, L3=2, L4=0) (bispecific antibody)
heavy: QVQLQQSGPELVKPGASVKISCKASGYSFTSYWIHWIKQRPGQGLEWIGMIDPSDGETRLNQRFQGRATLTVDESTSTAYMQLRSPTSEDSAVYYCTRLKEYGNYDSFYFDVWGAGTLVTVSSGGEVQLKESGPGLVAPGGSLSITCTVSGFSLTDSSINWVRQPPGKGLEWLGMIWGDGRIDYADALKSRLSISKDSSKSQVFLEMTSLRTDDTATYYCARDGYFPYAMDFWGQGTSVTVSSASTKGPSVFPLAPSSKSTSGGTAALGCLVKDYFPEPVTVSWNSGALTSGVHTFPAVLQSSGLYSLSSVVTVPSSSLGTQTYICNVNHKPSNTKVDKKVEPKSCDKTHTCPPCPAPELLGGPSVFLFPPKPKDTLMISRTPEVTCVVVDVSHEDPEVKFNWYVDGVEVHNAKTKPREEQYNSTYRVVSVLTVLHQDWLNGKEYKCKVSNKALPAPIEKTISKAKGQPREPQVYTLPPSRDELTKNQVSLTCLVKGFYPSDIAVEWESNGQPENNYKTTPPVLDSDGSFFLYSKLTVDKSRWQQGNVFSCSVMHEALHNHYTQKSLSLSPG
light: DIVLTQSPASLAVSLGQRATISCRASESVDSYGQSYMHWYQQKAGQPPKLLIYLASNLESGVPARFSGSGSRTDFTLTIDPVQAEDAATYYCQQNAEDSRTFGGGTKLEIKGGGGGDIQMTQSPASLSVSVGDTITLTCHASQNIDVWLSWFQQKPGNIPKLLIYKASNLHTGVPSRFSGSGSGTGFTLTISSLQPEDIATYYCQQAHSYPFTFGGGTKLEIKGGGGGRTVAAPSVFIFPPSDEQLKSGTASVVCLLNNFYPREAKVQWKVDNALQSGNSQESVTEQDSKDSTYSLSSTLTLSKADYEKHKVYACEVTHQGLSSPVTKSFNRGEC
notes: as for B1
B11: CODV-Ig Batch ID 232 (IL4 × IL13 on HC; L1=5, L2=5, L3=5, L4=0) (bispecific antibody)
heavy: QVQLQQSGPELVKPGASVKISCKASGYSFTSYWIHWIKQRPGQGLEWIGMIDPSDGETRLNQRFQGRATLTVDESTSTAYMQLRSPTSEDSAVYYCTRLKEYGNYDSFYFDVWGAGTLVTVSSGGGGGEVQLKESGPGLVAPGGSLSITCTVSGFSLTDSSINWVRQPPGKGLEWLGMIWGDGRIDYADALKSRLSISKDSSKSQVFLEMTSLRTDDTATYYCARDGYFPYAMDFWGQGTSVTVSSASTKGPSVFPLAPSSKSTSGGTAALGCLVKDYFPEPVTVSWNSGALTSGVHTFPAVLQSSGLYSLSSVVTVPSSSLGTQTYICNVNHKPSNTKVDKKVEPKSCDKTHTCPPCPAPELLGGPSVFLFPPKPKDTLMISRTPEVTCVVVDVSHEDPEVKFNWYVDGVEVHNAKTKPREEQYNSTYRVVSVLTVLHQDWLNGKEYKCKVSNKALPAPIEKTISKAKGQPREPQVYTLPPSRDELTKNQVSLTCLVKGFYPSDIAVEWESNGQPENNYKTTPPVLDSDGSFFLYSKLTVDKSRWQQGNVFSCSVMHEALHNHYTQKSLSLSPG
light: B10 light
notes: as for B1
B12: CODV-Ig Batch ID 214 (IL4 × IL13 on HC; L1=5, L2=5, L3=2, L4=2) (bispecific antibody)
chain 1: not shown
chain 2: B10 light

The target of the first assay is T1, recombinant human IL4. The assay can be described thus: SPR (Biacore 3000), captured CODV-Ig, antigen as analyte.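 Further: kd derived from kinetic fits in BIAevaluation 4.1, with signals referenced against a flow cell lacking captured antibody.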
Procedure: (§1) Kinetic binding analysis by Biacore was performed as follows. Surface plasmon resonance technology on a Biacore 3000 (GE Healthcare) was used for detailed kinetic characterization of purified antibodies. […] Chip surfaces were regenerated with 10 mM glycine pH 2.5. Kinetic parameters were analyzed and calculated in the BIAevaluation program package v4.1 using a flow cell without captured antibody as a reference.
For orientation: Kd means the concentration at which binding is half-saturated. Turning to B1, the Kd amounted to 0.004 nM. For the molecule B2, the Kd turned out to be 0.003 nM.

B3: the Kd was 0.011 nM. On to B4, for which the Kd came out at 0.003 nM. Take B5: the Kd amounted to 0.003 nM. Still for that read-out and setting: next, B6: 0.005 nM.

B7: the Kd was found to be 0.005 nM. The same measure, in the same setting: next, B8: 0.004 nM; B9: 0.008 nM.

For B10, the Kd was 0.01 nM. On the same count and under the same terms, next, B11: 0.008 nM; B12: 0.01 nM.

The target of another assay is T2, recombinant human IL13 (human, UniProt P35225 35-146, limits assumed).
T2 construct: bought; also called Antigen2
T2 sequence (P35225 35-146 limits assumed): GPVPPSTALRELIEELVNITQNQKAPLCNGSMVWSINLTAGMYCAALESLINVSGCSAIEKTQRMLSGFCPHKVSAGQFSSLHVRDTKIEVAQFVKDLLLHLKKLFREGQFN
The description is as above.
Procedure: as §1
Take B3: the Kd turned out to be 0.04 nM. On the same count and under the same terms, next, B5: 0.033 nM.

With B6, the Kd came to 0.027 nM. Still for that read-out and setting: the value for B7 was 0.047 nM; that for B8 was 0.05 nM; that for B9 was 0.071 nM.

As to B12, the Kd amounted to 0.053 nM.
